The values that follow come from the supplement of paper PMC9112550, “Optimization of the antimicrobial peptide Bac7 by deep mutational scanning” (BMC Biology, 2022).

This data set has as its system Escherichia coli TOP10. Put plainly: shrunken log2 fold change of peptide-encoding DNA abundance (4.5 h post-induction vs induction); higher = less antimicrobial activity (less host growth inhibition). The conditions noted are these: time post-induction: 4.5 h; library: site-saturation at positions 5, 18, 19, 20.
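Also: peptides expressed intracellularly from a pBAD plasmid library in pooled LB shake-flask culture, induced with 0.3% L-arabinose, DNA abundance read by NGS, three biological replicates, DESeq2 with apeglm shrinkage.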

For the sequence RRIRPRPPRLPRPRPRPNQQPRP, the “shrunken log2 fold change” value amounted to 0.0352.

Regarding RRIRGRPPRLPRPRPRPQDSPRP, the “shrunken log2 fold change” value came out at 0.135.

Take RRIRQRPPRLPRPRPRPMNQPRP: the “shrunken log2 fold change” value is -0.437.

Take RRIRQRPPRLPRPRPRPSMGPRP: the “shrunken log2 fold change” value was -0.163.

On to RRIRTRPPRLPRPRPRPSDPPRP, for which the “shrunken log2 fold change” value is -0.429.

As for RRIRIRPPRLPRPRPRPKWWPRP, the “shrunken log2 fold change” value came out at 0.188.

Consider RRIRCRPPRLPRPRPRPFVDPRP, for which the “shrunken log2 fold change” value was -0.307.

In the case of RRIRARPPRLPRPRPRPDANPRP, the “shrunken log2 fold change” value was 0.275.

Regarding RRIRTRPPRLPRPRPRPYPCPRP, the “shrunken log2 fold change” value was -0.245.

In the case of RRIRVRPPRLPRPRPRPVISPRP, the “shrunken log2 fold change” value was -0.509.

With RRIRLRPPRLPRPRPRPMAAPRP, the “shrunken log2 fold change” value stood at 0.627.

Turning to RRIRFRPPRLPRPRPRPCVCPRP, the “shrunken log2 fold change” value is 0.143.

For RRIRTRPPRLPRPRPRPPWMPRP, the “shrunken log2 fold change” value is -0.00314.

As to RRIRGRPPRLPRPRPRPPVQPRP, the “shrunken log2 fold change” value is 0.496.

RRIRCRPPRLPRPRPRPKYCPRP: the “shrunken log2 fold change” value is -0.264.

Regarding RRIRRRPPRLPRPRPRPAYNPRP, the “shrunken log2 fold change” value was -0.28.

As for RRIRMRPPRLPRPRPRPHSMPRP, the “shrunken log2 fold change” value was -0.0253.

On to RRIRNRPPRLPRPRPRPINQPRP, for which the “shrunken log2 fold change” value was -0.14.

For the sequence RRIRTRPPRLPRPRPRPWAFPRP, the “shrunken log2 fold change” value was -0.185.

Turning to RRIRHRPPRLPRPRPRPYFQPRP, the “shrunken log2 fold change” value was -0.935.

As to RRIRGRPPRLPRPRPRPSDFPRP, the “shrunken log2 fold change” value came out at 0.0231.

Turning to RRIRDRPPRLPRPRPRPEWAPRP, the “shrunken log2 fold change” value turned out to be 0.746.

As to RRIRDRPPRLPRPRPRPALVPRP, the “shrunken log2 fold change” value was determined as 0.0217.

As to RRIRNRPPRLPRPRPRPSTIPRP, the “shrunken log2 fold change” value is 0.0179.

For RRIRHRPPRLPRPRPRPYSLPRP, the “shrunken log2 fold change” value is -0.319.

For RRIRIRPPRLPRPRPRPFCFPRP, the “shrunken log2 fold change” value was -0.33.

As to RRIRNRPPRLPRPRPRPNGWPRP, the “shrunken log2 fold change” value was -0.0113.

In the case of RRIRYRPPRLPRPRPRPENDPRP, the “shrunken log2 fold change” value is -0.342.

RRIRRRPPRLPRPRPRPESGPRP: the “shrunken log2 fold change” value was 0.545.

As to RRIRFRPPRLPRPRPRPQVTPRP, the “shrunken log2 fold change” value is -0.367.

Take RRIRFRPPRLPRPRPRPHAGPRP: the “shrunken log2 fold change” value is -0.024.

On to RRIRIRPPRLPRPRPRPHPFPRP, for which the “shrunken log2 fold change” value is -0.583.

As to RRIRYRPPRLPRPRPRPPCSPRP, the “shrunken log2 fold change” value is -0.957.

In the case of RRIRGRPPRLPRPRPRPKGTPRP, the “shrunken log2 fold change” value was 0.294.

As for RRIRVRPPRLPRPRPRPDELPRP, the “shrunken log2 fold change” value was -0.0586.

Consider RRIRVRPPRLPRPRPRPLASPRP, for which the “shrunken log2 fold change” value was -0.214.

With RRIRGRPPRLPRPRPRPENVPRP, the “shrunken log2 fold change” value was 0.328.

For the sequence RRIRMRPPRLPRPRPRPYNTPRP, the “shrunken log2 fold change” value was -0.862.

For RRIRPRPPRLPRPRPRPGPEPRP, the “shrunken log2 fold change” value turned out to be 0.213.

Turning to RRIRGRPPRLPRPRPRPPWNPRP, the “shrunken log2 fold change” value stood at 0.411.

For the sequence RRIRMRPPRLPRPRPRPSYRPRP, the “shrunken log2 fold change” value is -0.0836.

For RRIRIRPPRLPRPRPRPECIPRP, the “shrunken log2 fold change” value was -0.0632.

On to RRIRARPPRLPRPRPRPHPGPRP, for which the “shrunken log2 fold change” value was 0.219.

As to RRIRTRPPRLPRPRPRPVDTPRP, the “shrunken log2 fold change” value worked out at 0.0439.

For RRIRQRPPRLPRPRPRPPVLPRP, the “shrunken log2 fold change” value turned out to be 0.155.

On to RRIRERPPRLPRPRPRPMHHPRP, for which the “shrunken log2 fold change” value was -0.394.

In the case of RRIRRRPPRLPRPRPRPPDAPRP, the “shrunken log2 fold change” value came to 0.768.

Regarding RRIRGRPPRLPRPRPRPKKAPRP, the “shrunken log2 fold change” value was -0.0191.

For RRIRYRPPRLPRPRPRPDATPRP, the “shrunken log2 fold change” value worked out at 0.104.

As for RRIRKRPPRLPRPRPRPATYPRP, the “shrunken log2 fold change” value came to 0.0782.

For RRIRIRPPRLPRPRPRPFWGPRP, the “shrunken log2 fold change” value is -0.139.

Consider RRIRQRPPRLPRPRPRPYKDPRP, for which the “shrunken log2 fold change” value is -0.0988.

For RRIRVRPPRLPRPRPRPEHDPRP, the “shrunken log2 fold change” value was -0.249.

In the case of RRIRMRPPRLPRPRPRPLKIPRP, the “shrunken log2 fold change” value is -0.0474.

Take RRIRQRPPRLPRPRPRPGLMPRP: the “shrunken log2 fold change” value is -0.0533.

Consider RRIRHRPPRLPRPRPRPCLPPRP, for which the “shrunken log2 fold change” value was -0.041.

RRIRMRPPRLPRPRPRPGNNPRP: the “shrunken log2 fold change” value was -0.0591.

For RRIRFRPPRLPRPRPRPFQWPRP, the “shrunken log2 fold change” value is -0.507.

Turning to RRIRYRPPRLPRPRPRPAMYPRP, the “shrunken log2 fold change” value is -1.14.

In the case of RRIRCRPPRLPRPRPRPIHPPRP, the “shrunken log2 fold change” value came out at 0.00281.

Consider RRIRARPPRLPRPRPRPSDNPRP, for which the “shrunken log2 fold change” value was -0.183.

Take RRIRERPPRLPRPRPRPKYCPRP: the “shrunken log2 fold change” value was -0.368.

RRIRPRPPRLPRPRPRPIINPRP: the “shrunken log2 fold change” value is -0.909.

On to RRIRGRPPRLPRPRPRPWLWPRP, for which the “shrunken log2 fold change” value is 0.0131.

RRIRSRPPRLPRPRPRPSQHPRP: the “shrunken log2 fold change” value is -0.24.

In the case of RRIRGRPPRLPRPRPRPVDPPRP, the “shrunken log2 fold change” value is 0.107.

Regarding RRIRLRPPRLPRPRPRPYLAPRP, the “shrunken log2 fold change” value is -0.756.

Consider RRIRERPPRLPRPRPRPGYYPRP, for which the “shrunken log2 fold change” value was -0.0487.

For RRIRRRPPRLPRPRPRPPEYPRP, the “shrunken log2 fold change” value stood at 0.0513.

With RRIRWRPPRLPRPRPRPFPWPRP, the “shrunken log2 fold change” value was -0.0524.

As to RRIRYRPPRLPRPRPRPGTGPRP, the “shrunken log2 fold change” value amounted to 0.147.

With RRIRLRPPRLPRPRPRPAKWPRP, the “shrunken log2 fold change” value turned out to be 0.388.

For RRIRNRPPRLPRPRPRPWNIPRP, the “shrunken log2 fold change” value is -0.0117.

For RRIRIRPPRLPRPRPRPRANPRP, the “shrunken log2 fold change” value was 0.0386.

With RRIRRRPPRLPRPRPRPWEMPRP, the “shrunken log2 fold change” value was -0.171.

Consider RRIRSRPPRLPRPRPRPQVWPRP, for which the “shrunken log2 fold change” value amounted to 0.675.

Turning to RRIRRRPPRLPRPRPRPLYHPRP, the “shrunken log2 fold change” value was -0.353.

Turning to RRIRERPPRLPRPRPRPGECPRP, the “shrunken log2 fold change” value was -0.0577.

On to RRIRNRPPRLPRPRPRPDHEPRP, for which the “shrunken log2 fold change” value was -0.039.

Consider RRIRDRPPRLPRPRPRPHVRPRP, for which the “shrunken log2 fold change” value was -0.12.

Turning to RRIRLRPPRLPRPRPRPSEPPRP, the “shrunken log2 fold change” value is -0.114.

Turning to RRIRPRPPRLPRPRPRPGNWPRP, the “shrunken log2 fold change” value amounted to 0.0527.

For RRIRVRPPRLPRPRPRPPIGPRP, the “shrunken log2 fold change” value amounted to 0.174.

As to RRIRPRPPRLPRPRPRPLFLPRP, the “shrunken log2 fold change” value is -0.0037.

On to RRIRFRPPRLPRPRPRPDYLPRP, for which the “shrunken log2 fold change” value is -0.159.

RRIRPRPPRLPRPRPRPALLPRP: the “shrunken log2 fold change” value was 0.0603.

As to RRIRQRPPRLPRPRPRPGKAPRP, the “shrunken log2 fold change” value turned out to be 0.0185.

For RRIRGRPPRLPRPRPRPMNAPRP, the “shrunken log2 fold change” value was 0.493.

With RRIRYRPPRLPRPRPRPQIWPRP, the “shrunken log2 fold change” value is -0.662.

Take RRIRYRPPRLPRPRPRPMPMPRP: the “shrunken log2 fold change” value was -0.319.

Consider RRIRGRPPRLPRPRPRPHWYPRP, for which the “shrunken log2 fold change” value was -0.0365.
